The values that follow come from IntAct's records for PubMed 22612223.

The target in the assay is cdc37_human CDC37 (UniProt Q16543).
Chain of cdc37_human CDC37 (Q16543 whole entry): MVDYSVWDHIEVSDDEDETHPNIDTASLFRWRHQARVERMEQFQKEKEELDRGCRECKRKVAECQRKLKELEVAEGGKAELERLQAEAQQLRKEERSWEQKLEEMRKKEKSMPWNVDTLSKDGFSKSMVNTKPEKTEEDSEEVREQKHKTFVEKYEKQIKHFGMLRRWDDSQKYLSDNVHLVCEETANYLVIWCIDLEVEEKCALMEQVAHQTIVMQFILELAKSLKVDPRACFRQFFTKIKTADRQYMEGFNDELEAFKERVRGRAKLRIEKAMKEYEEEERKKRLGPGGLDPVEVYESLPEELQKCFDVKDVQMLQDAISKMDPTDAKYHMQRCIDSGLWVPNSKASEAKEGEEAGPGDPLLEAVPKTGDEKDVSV

Regarding “Leucine-rich repeat serine/threonine-protein kinase 2 (Homo sapiens), Q5S007 G2385R”, the “effect of a mutation on the interaction” value is given as “increasing interaction”.
